Measured values taken from the nanobody polyreactivity screen of Harvey et al. (2022).

Assay: yeast display, Sf9 membrane polyspecificity reagent, FACS + sequencing; frameworks hold sequencing errors
Method in brief: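 A synthetic nanobody library was expressed on Saccharomyces cerevisiae BJ5465 by galactose induction for 36–48 hours. The library was stained for 1 hour at 4 °C with 10% biotinylated, detergent-solubilized Sf9 membrane reagent and enriched with streptavidin microbeads before FACS. Low and high (top ~1%) gates were set on anti-HA fluorescence for expression and streptavidin fluorescence for reagent binding, and each polyreactivity label reflects the gate of origin.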

Row | Sequence | polyreactivity (PSR sort gate)
1 | QVQLVESGGGLVQAGGSLRLSCASSGFTFGWYDMGWYRQAPGKERELVASISWSGSSTYYADSVKGRFTISRDNAKNTVYLQLNSLKPEDTAVYYCNAVSVDYVNWYWYDYWGQGTQVTVSS | high polyreactivity
2 | QVQLVESGGGLVQAGGSLRLSCASSGFTFKFNAMGWYRPAPGKERELVAAISQSGVNTYYADSVKGRFTISRDNAKNTVFLLMNSLKPEDTAVYYCAADFSAYGYDYWGQGTQVTVSS | low polyreactivity
3 | QVQLVESGGGLVQAGGSLRLSCASSGFTFRSYAMGWYRQAPGKERELVAAIRWSGDSTYYADSVKGRFTISRDNAKNTVYLQMTSLKPEDTAVYYCAAGTYLRYGYWGQGTQVTVSS | high polyreactivity
4 | QVQLVESGGGLVQAGGSLRLSCASSGFTFVYNAMGWYRHAPGKERELVAAITSGGNTYYADSVKGRFTISRDNAKNTVYLQMNSLIPEDTAVYYCAKRGYGRYYAYDYWGQGTQVTVSS | high polyreactivity
5 | QVQLVESGGGLVQAGGSLRLSCASSGFTFWYYAMGWYRQAPGKERELVASISRTGGTTYYADSVKGRFTISRDNAKNTVYLQMNSLKPEDTAVYYCNARPKVYYREYDYWGQGTQVSVSS | high polyreactivity
6 | QVQLVESGGGLVQAGGSLRLSCASSGFTFYYYAMGWYRQAPGKEMELVAAIDTSDGSTYYADSVKGRFTISRDNAKNTVYLQMNSLKPEDTAVYYCAAEVDWVPFLLDYWGQGTQVTVSS | low polyreactivity
7 | QVQLVESGGGLVQAGGSLRLSCASSGFTSRYVMGWYRQAPGKEMELVASISRSGGSTYYADSVKGRFTISRDNAKNTVYLQMNSLKPEDTAVYYCAADATPTDMDYLGQGTQVTVSS | high polyreactivity
8 | QVQLVESGGGLVQAGGSLRLSCASSGGTFTAYAMGWYSQAPGKERELVAAITTNGGRTYYADSVKGRFTISRDNAKNTVYLQMNSLKPEDTAVDYCNRVSLSRRWFLYDYWGQGTQVTVSS | high polyreactivity
9 | QVQLVESGGGLVQAGGSLRLSCASSGIIFHYYAKGWYRQAPGKERELVATISWDGGNTYYADSVKGRFTISRDNAKNRVYLQMNSLKPEDTAVYYCNVYDKAPAYAYWGQGTQVTVSS | low polyreactivity
10 | QVQLVESGGGLVQAGGSLRLSCASSGIIFYTYAMGWYRQAPGKERELDAAITQTSAPTYYADSVKGRFTISRDNAKNTVYLQMNSLNPEDTAVYYCAAVPSYRVQGGRMYYWGQGTQVTVSS | high polyreactivity
11 | QVQLVESGGGLVQAGGSLRLSCASSGISFRRNAMGWYRQAPGKERELVAISTICGSTYYADSVNGRFTIARDNAKNTVYLQMNTLKPEDTAVYYCAAEGKSTGVYLDGGEGFAYDYWGQGTQVTVSS | low polyreactivity
12 | QVQLVESGGGLVQAGGSLRLSCASSGITFDKYAMGWYRQAPGKERELVAAINRSGGSTYYADSVKGRFTISRDNAKNTVYLQINSLKPEDTAVYYCAAVKPPDYYYWGQGTQVTVSS | high polyreactivity
13 | QVQLVESGGGLVQAGGSLRLSCASSGITFPGNAMGWYRQAPGKERELVAGISDGDSTNYADSVKGRFTISRDNAKNTVYLQMNSLKPEVTAVYYCNAQGTTETSGGGFFRGMDYWGQGTQVTVSS | low polyreactivity
14 | QVQLVESGGGLVQAGGSLRLSCASSGITFPNYAMGWSRQAPGNERELVAAISSSGGSTYYADSVKGRFTISRDKAKNTGYLQMNSLKPEDTAVYYCATAINVYPRMDYGYWGQGTQVTVSS | low polyreactivity
15 | QVQLVESGGGLVQAGGSLRLSCASSGLIFSIYAMGWYRQAPGKERELVAAIRWSGGSTYYADSVKGRFTISRDNAKNTVYLQMNSLKPEDTADYYCNADITVYVRIYQYNYWGQGTQVTVSS | low polyreactivity
16 | QVQLVESGGGLVQAGGSLRLSCASSGLISRRNAMGWYRQAPGKERELVAAISTGSSTNYADSVKGRFTISRDNAKNTVYLQMNSLKPEDTAVYYCAATQYWWSTLGIRDDYWGQGTQVTVSS | low polyreactivity
17 | QVQLVESGGGLVQAGGSLRLSCASSGLTFHFYTMGWYRQAPGKERELVASITSGGITYYADSVKGRFTISRDNAKNTVYLQMNSLKPEDTAVYYCAATYQFIYTDFDYWGQGTQVTVSS | high polyreactivity
18 | QVQLVESGGGLVQAGGSLRLSCASSGLTFTPNAMGWYRQAPGKEREFVAAITWRGGRTYYADSVKGRFTISRDNAKNTVYFQMKSLNPEDTAVYYCAVTYRPTYQLDYWGQGTQVTVSS | high polyreactivity
19 | QVQLVESGGGLVQAGGSLRLSCASSGNIFVPNAMGGYRQAPGKERELVAAIRRGGSTNYADSVKGRFTISRDNAQNTVDGQMNSLKPEDTAVYYCAKSRVSFTDLEGYYWGQGTQVTVSS | low polyreactivity
20 | QVQLVESGGGLVQAGGSLRLSCASSGRIFGLYAMGWYRQAPGKERELVAAITLSGDGTDYADSVKGRFTISRDNAKNTVYLQMNSLKPEDTAVYYCAKVGQYWWNMDYWGQGTQVTVSS | low polyreactivity
21 | QVQLVESGGGLVQAGGSLRLSCASSGRIFLVYAMGWYRQAPGKERELVAAISYSGGRTYYADSVKGRFTISRDNAKNTVYLQMNSLKPEDTAVYYCAAKRITYYGGGRFYYWGQGTQVTVSS | high polyreactivity

Row | Sequence | polyreactivity (PSR sort gate)
22 | QVQLVESGGGLVQAGGSLRLSCASSGRIFLYNAMGWYRQAPGKERELVAVISYGGGTYYADSVKGRFTISRDNAKNTVYLQMISLKPEDSAVYYCAAEKYSSSRYWPYNYWGQGTQVTVSS | high polyreactivity
23 | QVQLVESGGGLVQAGGSLRLSCASSGRNFTRNTMGWYRQAPGKERELVAAISGRGGSTYYADSVKGRFTISRDNAMKTVYLQMNSLKPEDTAVDYCAADGVYRGGYDYWGQGTQVTVSS | high polyreactivity
24 | QVQLVESGGGLVQAGGSLRLSCASSGRSLSVYAMGRYRQAPGKERDLVADITWRGGSTYYADSVKGRFTISRDNAKNTVYLQMNSLKPEDTAVYYCAAADSTWFDWGNYWYYYWGQGTQVSVSS | low polyreactivity
25 | QVQLVESGGGLVQAGGSLRLSCASSGRTFLVNAMGSYRPAPGKERELVAAISQSGGSTYYADSVKGRFTISRDNAKNTVYLQMNCLKPVDTEVYYCAAELINDYYWGQGTQVSVSS | low polyreactivity
26 | QVQLVESGGGLVQAGGSLRLSCASSGRTFRGYVMGWYRQAPGKERELVASISYSGGSTYYADSVKGRFTISRDNAKNTVYLQMNSLKPEDTAVYYCAARKGYDQYRWRYSQNNYWGQGTQVTVSS | high polyreactivity
27 | QVQLVESGGGLVQAGGSLRLSCASSGRTFYYYAIGWYRQSPGKETELVAVIRSSGDSTYYADSVKGRFTISRDNAKNTVSLQMNSLKPEDNAVYYCAAEAPSRCYSWHPRYYFWGQGTQVTVSS | low polyreactivity
28 | QVQLVESGGGLVQAGGSLRLSCASSGSIFFLYTMGWYRQAPGKERELVAAIDSGGSTNYADSVKGRFTISRDNAKNTVYLQMNSLKPEDTAVYYCNADGGYYYPYRGYHKYYYWGQGTQVTVSS | low polyreactivity
29 | QVQLVESGGGLVQAGGSLRLSCASSGSIFYQNAMGWYRQAPGKEREFVAAIRSSGSSTYYADSVKGRFTISRDNAKNTVYLQMNSLKPEDTAVYYCAAPSSRGQGRNFDYWGQGSQVTVSS | high polyreactivity
30 | QVQLVESGGGLVQAGGSLRLSCASSGSIFYRNTMGWYRQAPGKEREFVAAIRTSGGSTYYADSVKGRFTISRDNAKNTVYLQMNSLKPEDTAVYYCAAEYRYGWAYRKGGDYWGQGTQVTVSS | high polyreactivity
31 | QVQLVESGGGLVQAGGSLRLSCASSGSIIVVYGMGWYRQAPGKERELVAAISGGITNYADSVKGRFTISRDNAMNTVYLQMNILIPEDTAVYYCATVDGAYQYTYDYWGQGTQVTVSS | low polyreactivity
32 | QVQLVESGGGLVQAGGSLRLSCASSGSTFAYYVMGRYIHAPGKEWELVAAISRGGRTYYADSVKGRFTISRDNAKNTVYFQLNSLKPEDTAVYYCAAEGASLAKYDYCGQGTQVTVSS | low polyreactivity
33 | QVQLVESGGGLVQAGGSLRLSCASSGSTFKRYAMGWYRQAPGKERELVAAITLSGGNTYYADSVKGRFTISRDTAKNTVYLQLNSLKPEDTAVYYCAARRYRGYDYWGQGTQVTVTS | high polyreactivity
34 | QVQLVESGGGLVQAGGSLRLSCASSGSTFKYYAMGWYRQSPGKERELVAAISGTGGSTYYADSVKGRFTISRDNAKNTVYLQMNCLKPEDTAVYYCNTYPYIRYDYWGQGTQVTVSS | high polyreactivity
35 | QVQLVESGGGLVQAGGSLRLSCASSGSTFPEYAMGWYRQAPGKERELVAVISFGDGNTYYADSVKGRFTISRDNAKNTVYLQMNSLKPEDTAVYYCNAADDSVDQSVRTLRQYEYWGQGTQVTVSS | low polyreactivity
36 | QVQLVESGGGLVQAGGSLRLSCASSGSTFPSNAMGWYRQAPGKERELVAAISRSGGSTYYADSVKGRFTISRDTAKNTVYLQMNSLKPEDTAVYYCAVQVRPNSGGTRIHRCGYDYWGQGTQVTVSS | low polyreactivity
37 | QVQLVESGGGLVQAGGSLRLSCASSGSTFRLYAMGWYRQAPGKERELVATISTSGGRTYYADSVKGRLTISRDNAKNTVYLQMNSLKPEDTAVYYCAAYRGTLLTAYDYWGQGTQVTVSS | low polyreactivity
38 | QVQLVESGGGLVQAGGSLRLSCASSGSTFRRNAMGWYRQAPGKERELVAAITWRGTSTYYADSVKGRFTISRDNAKNTVYLQMNSLKPEDTAVYYCNAVYNPYTTYSLSAYDYWGQGTQVTVSS | high polyreactivity
39 | QVQLVESGGGLVQAGGSLRLSCASSGSTFSYYAMGWYRQATGKERELVAGITTNGGRTFYADSVKGRFTISRDNAKNTVYLQMNSLKPEDTAVYYCNARHGRHRRTRSYYWGQGTQVTVSS | high polyreactivity
40 | QVQLVESGGGLVQAGGSLRLSCASSGSTLEVNAMGWYRQAPGKERELVAAITSGCSTNYADSVKGRFTISRDNAKNTVYLQMNSLKPEDTAVYYCNALAYYGMDYWGQGTQVTVSS | low polyreactivity
41 | QVQLVESGGGLVQAGGSLRLSCASSGYIFEKYAMGWYRQAPGKERELVAAITVTGASTYYADSVKGRFTISRDNAKNTVYLQMNSMNPEDTAVYYCAAKTLSVGYVDPDYGRDYWGQGTQVTVSS | low polyreactivity
